{"source": "paper PMC11396517", "about": "“Differences in the Renal Accumulation of Radiogallium-Labeled (Glu)14 Peptides Containing Different Optical Isomers of Glutamic Acid” (Molecules, 2024)", "key": {"in vivo": {"assay": "in vivo", "parameters": "species or system ddY mice", "conditions": "male, ddY, mouse, iv, 37 kBq/100 uL, total radioactivity", "protocol": "Biodistribution experiments were performed after an intravenous administration of each tracer solution diluted in saline (37 kBq/100 μL) to 6-week-old male ddY mice (weight, 27–32 g, Japan SLC, Inc., Hamamatsu, Japan). Four mice were sacrificed at each time point for each compound at 10, 60, and 180 min post-injection. The tissues of interest were dissected and weighed. Complete left femurs were isolated as representative bone samples, radioactivity counts were determined using an auto well gamma counter (ARC-7010, ALOKA Co., Ltd.), and counts were corrected for the background radiation and physical decay that occurred during counting."}, "[1]": {"assay": "Hydroxyapatite-binding assay", "conditions": "hydroxyapatite beads 1, 2.5, 10, 25 mg/mL in Tris/HCl-buffered saline 50 mM pH 7.4, ligand 19.5 µM, 1 h, room temperature, gamma counter, four samples; Figure 2", "protocol": "Hydroxyapatite-binding assays were performed according to procedures described previously. Briefly, hydroxyapatite beads (Bio-Gel; Bio-Rad, Hercules, CA, USA) were suspended in Tris/HCl-buffered saline (50 mM, pH 7.4) at 1 mg/mL, 2.5 mg/mL, 10 mg/mL, and 25 mg/mL. For the solutions of [^67Ga]Ga-HBED-CC-(D-Glu)14, [^67Ga]Ga-HBED-CC-(DL-Glu)14, and [^67Ga]Ga-HBED-CC-(D-Glu-L-Glu)7, the ligand concentrations were adjusted to 19.5 µM by adding the corresponding HBED-CC conjugated Glu peptides. A solution of each [^67Ga]Ga-HBED-CC-(D-Glu)14, [^67Ga]Ga-HBED-CC-(DL-Glu)14, and [^67Ga]Ga-HBED-CC-(D-Glu-L-Glu)7 (200 µL each) was added to 200 μL of the hydroxyapatite suspension, and the samples were gently shaken for 1 h at room temperature. After centrifugation at 10,000× g for 5 min, the radioactivity of the supernatants was measured using an auto well gamma counter (ARC-7010B, ALOKA Co., Ltd., Tokyo, Japan). […] The ratios of binding were determined as follows:Hydroxyapatite binding (%) = (1 − [sample supernatant radioactivity]/[control supernatant radioactivity]) × 100"}, "[2]": {"conditions": "hydroxyapatite beads; Figure 2; cited from earlier work", "protocol": "To determine the affinity of the compounds for hydroxyapatite, the hydroxyapatite-binding assay was performed. The hydroxyapatite-binding rates of [^67Ga]Ga-HBED-CC-(L-Glu)14, [^67Ga]Ga-HBED-CC-(D-Glu)14, [^67Ga]Ga-HBED-CC-(DL-Glu)14, and [^67Ga]Ga-HBED-CC-(D-Glu-L-Glu)7 are illustrated in Figure 2. The binding profiles of each tracer were similar."}}, "note": "Like-named read-outs stand apart in the source and are kept apart here."}
{"compound": "O=C(O)CCc1ccc(O)c(CN(CCN(CC(=O)O)Cc2cc(CCC(=O)N[C@H](CCC(=O)O)C(=O)N[C@H](CCC(=O)O)C(=O)N[C@H](CCC(=O)O)C(=O)N[C@H](CCC(=O)O)C(=O)N[C@H](CCC(=O)O)C(=O)N[C@H](CCC(=O)O)C(=O)N[C@H](CCC(=O)O)C(=O)N[C@H](CCC(=O)O)C(=O)N[C@H](CCC(=O)O)C(=O)N[C@H](CCC(=O)O)C(=O)N[C@H](CCC(=O)O)C(=O)N[C@H](CCC(=O)O)C(=O)N[C@H](CCC(=O)O)C(=O)N[C@H](CCC(=O)O)C(=O)O)ccc2O)CC(=O)O)c1", "note": "[[67Ga]Ga-HBED-CC-(D-Glu)14, metal not drawn]", "values": [{"measurement": "tissue uptake dose at 10 min", "setting": "in vivo", "value": 0.57, "unit": "%ID"}, {"measurement": "tissue uptake dose at 1 h", "setting": "in vivo", "value": 0.51, "unit": "%ID"}, {"measurement": "tissue uptake dose at 3 h", "setting": "in vivo", "value": 0.76, "unit": "%ID"}, {"measurement": "Hydroxyapatite binding profile (in words)", "setting": "[1]", "value": "similar"}]}
{"compound": "[^67Ga]Ga-N,N′-bis-[2-hydroxy-5-(carboxyethyl)benzyl]ethylenediamine-N,N′-diacetic acid-conjugated (L-Glu)14 [[^67Ga]Ga-HBED-CC-(L-Glu)14]", "values": [{"measurement": "Hydroxyapatite binding profile (in words)", "setting": "[2]", "value": "similar"}]}
{"compound": "O=C(O)CCc1ccc(O)c(CN(CCN(CC(=O)O)Cc2cc(CCC(=O)N[C@H](CCC(=O)O)C(=O)N[C@@H](CCC(=O)O)C(=O)N[C@H](CCC(=O)O)C(=O)N[C@@H](CCC(=O)O)C(=O)N[C@H](CCC(=O)O)C(=O)N[C@@H](CCC(=O)O)C(=O)N[C@H](CCC(=O)O)C(=O)N[C@@H](CCC(=O)O)C(=O)N[C@H](CCC(=O)O)C(=O)N[C@@H](CCC(=O)O)C(=O)N[C@H](CCC(=O)O)C(=O)N[C@@H](CCC(=O)O)C(=O)N[C@H](CCC(=O)O)C(=O)N[C@@H](CCC(=O)O)C(=O)O)ccc2O)CC(=O)O)c1", "note": "[[67Ga]Ga-HBED-CC-(D-Glu-L-Glu)7, metal not drawn]", "values": [{"measurement": "tissue uptake dose at 10 min", "setting": "in vivo", "value": 0.32, "unit": "%ID"}, {"measurement": "tissue uptake dose at 1 h", "setting": "in vivo", "value": 0.84, "unit": "%ID"}, {"measurement": "tissue uptake dose at 3 h", "setting": "in vivo", "value": 0.48, "unit": "%ID"}, {"measurement": "Hydroxyapatite binding profile (in words)", "setting": "[1]", "value": "similar"}]}
